The text below walks through data of paper PMC6013450, “A convenient protocol for generating giant unilamellar vesicles containing SNARE proteins using electroformation” (Scientific Reports, 2018).

For this assay, the target named is T1, syntaxin-1A (183–288) (Rattus norvegicus, UniProt P32851 183-288).
T1 construct: syntaxin-1A, Rattus norvegicus, residues 183-288, contains the transmembrane region; source: E. coli BL21 (DE3), purified (Ni-NTA, ion exchange MonoQ, buffer with 1% CHAPS)
The assay is described as follows: ion exchange chromatography of the assembled complex; monomers mixed overnight at 4 °C; complex purified on a MonoQ column in a buffer containing CHAPS. Particulars: both partners purified.

T1 sequence (P32851 183-288): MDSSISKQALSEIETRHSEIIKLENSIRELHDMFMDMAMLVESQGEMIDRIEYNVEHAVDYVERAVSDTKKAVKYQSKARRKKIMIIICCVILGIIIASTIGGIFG

B1: synaptobrevin-2 fragment (49–96) (domain or fragment, Rattus norvegicus, UniProt P63045 49-96, looked up)
chain: NVDKVLERDQKLSELDDRADALQAGASQFETSAAKLKRKYWWKNLKMM
notes: synaptobrevin-2, Rattus norvegicus, residues 49-96; also called synaptobrevin fragment 49–96; source: E. coli BL21 (DE3), purified (Ni-NTA, ion exchange MonoS)
For the molecule B1, the binding result is on record as “binds”.
